assay: soluble fraction after stress (log2 fold change); higher = more stays soluble; pooled small domains, quantitative proteomics; conditions: stress: 50 degC
Method in brief: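 Each library was heated to 50°C as a stress step. The libraries, made up of small protein domains, were pooled and analysed at high throughput by quantitative proteomics. The reported value is the base-two logarithm of the fold change in each protein's soluble amount after stress, taken as a measure of aggregation propensity. The higher the value, the more protein stays in solution.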

Sequence	soluble fraction (log2)
HMPTSPKANFLKELPQEFTRKQAVTIGDKLNIKERTVDNYLAKLEQAGYLVKPKAGYYQKIKS	0.128
HMSQIANLLLSKNIKVNNQNIIYYETVLKYLPNNEKKEFFINAMKNNIYFTEEEIKNFGNIFN	-1.66
HMDSIGTQIRKLREEAEMPLRKLSALLDIDQSTLSKIERDERRANTQMIEQIAKIFKVNKEQLLVA	-0.926
HMDRSAQVLFLEHARSRLPQRIQWAEELAELLSIGIDSAYRRIRGETALTFNEAVSVSRKYDISLDYLFK	-3.62
HMGWEDLVGKTAVVKVALAPVGMVFFRGEFWSAISETGRIEPGEEVTISRIDGLKLYVTKKRIM	-0.607
HMNQRQKQLLSILEQQGDWMKGKALATLLAVSDRTIRSDIEKINREVEGSILSHPHKGYLLSVENRQIAET	0.256
HMVLQHHTATKALSYHTSASASAAVKGSFARGDSVQVVQGGSQTADGAKWHKVKVGSSYYYAAAEHLTP	≥ 0.62
HMEPVDYEALRKELMQKVMGLFTQSRDVGIQILSSFGAKKLSDVPDDKLVAFAASVDKALAG	-0.0404
HMGTRTILGIDPGSRKTGFGIIRLDGSRTHYVSSGVIRIPDTALPERLKIIFASLNEIIQQFQPQEV	0.0673
HMRDKTMLGNVIRTRRKKMNLTLEELSKQVGITSGGLSQIERGLVDPSLSVLRRISRALNLPMNVMFSE	-0.281
HMSLPKIVVPTDVTVSQLAKYLEVDAISIIKQLFGMGVVASLNQRLEDEIIQLIGNEFGKEIIFSE	-0.054
HMGESFEELAREISDDTGSKTEGGETGLFPRGVMAPQFEEAAFLLKVGDISEPIRTKFGYHIIKLKEIKP	-0.156
HMAGGVFELTGKVTADAKAGDLVYVKAATGAGTKPVVTTVKTGADVIIGWLKEPVSSASVDQKMQVVLA	0.147
HMLDPYNVLGVPRDAGMDEIKKAYRKLSRTYHPDANIDNPNKAQAEEKFKQIQEAYQQIVKERTE	-0.384
HMTKYVEGQKYVFEFRDGTITIGTYLRTGEGNIYIKDLSGEDIYIPKIMIAQIHLATDDNVKGDEFWF	-0.353
HMQIYSQEIYDAQKVLKELGLYTSDLDGLNGPGTKRALRNFQSKSGLNADGVLGPLTKSALDKGEESYITV	0.0375
HMQILVEGVEANQRLDLFLRARLTEFSRSRIQGLVKNGNVLVNGNIARQAYLVQVGDKIELDVPEPVA	-0.487
HMDDILAYEIEDKEDLENLSLGKSIGINLNKLIKPTLNSFDNSLLFLSKKGNIISYGKLNGDLFKPKKVL	0.0598
HMTLKVQLSEISKMVSLSYIAKKYFNKSQSWLSQRINGNTIHNKPAKFTSEELATLQFALKDIGNILNSTV	-2.8
HMGEIHAQIPGLVSHLFVKEGNTVQVEQKLFILEAMKMENEIDSPIQGTVKRIHIATGSKVEKGDLIMEIS	-0.505
HMTRRVIRAPAAGIMRSNVKLGDLVKEGDVIAWIGEHEIKAPLTGMVRGLLNDGLAVVGGFKIGDI	-0.175
HMDSIDVQQKKLLTDIELGNIEGIKLFLKRHNNTINFLTIKGFHPLVYAVRNNNMEIVNLFLTT	0.172
HMNTLLGLSNSFQDNKDLENANSISRRFISYRPRSEAELRIRLLKVFSHEIVLESVAQMYREGLLNDQRF	-3.33
HMRPFAMNLLEKHKADIEVWLKHPNMTNTQIKRLLEELGTSVSVSSIDRFISTSFPKLPKHT	-0.17
HMPAASDALAGELAQIARLDIAKLLAGDLSEADWSRITSATVQLSERHPDASDELTALVERIDTAYSARAT	0.0455
HMEKPTEITLSNRVSVQELAEKMYVSETDIIRTLFLDGRIININQVLDIDTAIRVGEQLGIKIKII	-0.496

Sequence	soluble fraction (log2)
HMKFGEQIKERRQELDLTQAEVAEKLFVTRQAVSNWEHNKTYPDLNMLVKISNVYQISLDSLLR	-1.23
HMTALSAREHEVLQLITRGYTADEIAAMLQISRHTALTYVRRIYSKLKVNSKAEAIFEVRQR	-0.577
HMTVGEAHLEEVYLKVLKQVEEQGTALIRTTDVETGRPAAGIRRRYMRGTLPDEWVAKFEALPGWTWAPG	-0.879
HMGDIQFMEYRINHSSGWIGKNISDFAAVSKNLVILIKRGQDVVIPRGPTAIMEDDVLVLHA	-1.6
HMTQEAMRSLRKSLQNLSSRQQVIFMLRHYEGLALKEIAEHLGLETGTVKAHLHRAVTQLRKDLVE	-1.68
HMGELDPKIIAQINTFLQGITKLIEHPGNKDAKKTALGALHKLTFDQNITANFGKQLGQLDQVIQSSEET	0.112
HMGGKAITGGEGEIIIRADKAETVAIYGIDGRLVHRVSTEAGDTKRVSVPAGIYIVKGAKVVV	≥ 0.62
HMKVEFTPAYLKKFKANKNAWKFYEAQTNTYKKQSAWYVISAKQEETRLRRLDLLIYDSENGIHIKPLRR	-2.6
HMDAAYVYVIGTRVNQRAGPSTSNAVMGVLSEGTRVETLRDEGQWTQIRSNFGTGWMSSSFLSSVAP	-1.55
HMQEEMIRGDIKLNTVMQTVHLAVGTETERNWQPVETTAKEFELLKLLMENPGVTLKKEYLFHMLI	-0.102
HMGGYVVVGDKDGFWSVVSTPVSKAKAEELLKDTTFPKGEKGKIVSVAEAMSHKKVIGKEYLESGGT	0.117
HMPLITAIELDSISARSFQFNTQSGSTYFIEGSTDLKSWDVIAEVKATDSTTTYEDHRKIYHEAYFYRVRL	-2.01
HMKDYKSALQELIQSGDKRVISYHTLKETGPSHNREFEAAVKLDGNIILGVGKGKTKKEAEQNAAHEALKK	0.172
HMKKAMIISTKRGTPAAELDKIIREFEAKGLSVTMIRGTDYNVFGLVGDTTVIDEKQVRANPYVENVQRV	0.135
HMPLNRFLNLPHEDKERVLLIAKKQFSTHGYDAMSLNLLLKELDISKGQFYYWFEDKADLFFTVL	0.0032
HMRSVTLQTDREGDILYVDGKQIGVSPQRLELSYGVHTIRAERGEQHTEKELEVTETGGETVVTLGFG	0.129
HMAQVSDTGAIAKIVADAIAANPKQVQQYLDGNEKVLMYLVGQVMKLSKGKANPPMVIQLLKEQLG	-0.0543
HMADEIQIGLQKAIQSLPEKQKLVFSMRYYDEIPYDEMSKILDMSVGTLKTNYHYAKQKIEDFLQNH	-1.05
HMRNSVQREWIYDYIQRQDAHLSADEIYEGLLKEGKNISLATVYRNLSILVDEYKIASVMTDSKKQVYDK	-1.23
HMKSIEVPNLINMTLRKAKIELIDNEFNLDTVIYEYNPNIREGRVSLQIPESGTILKSGSNISIHISKGIP	-1.53
HMEKPYTPPANLNEIQSYEELSKAVQYYNKVKDAATTDADRLKAQQSIDTLEDMRKAWDAASST	0.072
HMYPEDMMSLMRRALRLINHLESNRKDRHNSRQLELTESKIRRLARYYKGRGLIETEWAYKRDQLRLLV	-0.398
HMSDYVLLYSGLNTSDTTFLAYSFQEKGIRYKMPNPDEIEVRVQDVDQARRIAAGAQLGGQVS	-0.424
HMNYYYKDNQYWYVGFRYDERLVKEIKRFVGAGYNPENKEWYIPFTLPTVAPLQKWLHDNGFVEGMNYYP	-1.86
HMESWEDSNIANEFKSTIKIAEKRLAEGGDHPELLEKLEALKQAIINENQTEASKLDDQVNDILFDMDD	-0.0057
HMGSIEASFEEDVRRYLARKSMTTTEISKKMRQKRPDMSRDQLMTLLANAIKRIKPIKKKIKGTLYLSLE	-1.3

Sequence	soluble fraction (log2)
HMRWSDQKEIVTLSLDHVLVEKGRKTKEYSWREFRTFTAFEIKKSSKDQINLGFKSKGNTVIIGNF	-0.919
HMDTQKYDLNDDGRFDVQDVTYLQIKIAGDGELTDNQKKIADYNNDGKIDVQDVTSAQMLIS	-0.0732
HMKIVFGHVKWFDIDKGFGFLVLEDEGGDVLLHANVLKNFGRTSVSEDTKIEFEFLETDKGRQVSTIYNIL	-3.85
HMETLETYTSRLRQLEDITNNFKGVDKSFAIQAGREIRVMVVPEQVSDADMILMARDISKAIEAELEYPGQ	-0.0847
HMRRSLIGPTVRERRRALGITQSRLAAEVGISASYLNLIEGDKRNIGGALLQRIAGALGLALD	-2.74
HMVSQELIMLGNRIREYRKERGFSQEILAEKSGVSTNTISRIEGGQMAMSVGILQRIVKALGVDANVMLG	-0.332
HMKLIPLTDMRGQLRSGAPLPWGVRDAQGNLLLGKGHVIASDDMLEALLARGMFVDAEEAKAARG	0.00271
HMISENFVEAKILLTEDNRPKSLEILKDIIRQHDKVYSPLSLFLILDEDLEENKEIILEYFDLVLS	-0.185
HMINDKLQHLFSLFPAMDKELKRKGITRQILWVEYKKQYPLGFGRSQFNSYFAAWKAQVSPS	-1.52
HMHANAALTPRQRLRLAQKIVDEEWTVAAAADYFRVSWPTAAKWARRYVELGEAGMADRSSRP	-2.1
HMNVPFGYTIKDGLLVEQPDEKAILDNILTWKKGQMTVAEIAKKTGMETWKIYGILNYWRNK	-0.875
HMDLRAPKPIKEMGEEYIKLYQYLRKGESENIVMSKMNISLDDYDYMRSEIEDKLSLYNMLDLLRKP	-0.718
HMADLVYLRKRLQDAIAQLPEDMRTAYTLFQIARRSIREIAELTGASESLVKVRIHRAKGKLQELLEDLR	-1.87
HMVDLLDETLIEFYAFANNLIKDLETNSEKYGGMSQFEKELIFNEQITQYQRKLKIDLQDEVG	-1.54
HMTVDYDKFTKDTVVQHNKFGKGVIIMTSGDGEDKIASIAFQGLGVKRFSLAIAASNLKILGKVNED	-0.133
HMNSGFEVFREVVNQGSFIGAANALGISAPAVSKQIKLLENRLGLLLLYRTTRNVTLTDIGKQLFDTLDNS	-1.97
HMKPRVTVVTLGVDDLERAVRFYAEGLGFPTEGIVGREFEFGAVAFFDMQPGLRLALWPRRSLAHDSGLP	-0.306
HMSAPQKWDGSLQDFIRFKQEAKTLMDNIPNKRLALNAILETISDGKMRKRLAKYDGPESALKSLELEFGN	-0.0592
HMFLPETEVKSFFHRGITKISPSLAMDIADFFRMPFAVILKRALALEVISDEQYRSFMTVKPEHV	-0.014
HMSWAAQVVDKMTNDQLIKSLNEIVNTGKQLGLDITVEQNGDKNFIMTVKDSKGNVQLVTPIG	-0.0133
HMLTLSGPEHAVVRALWPEPELDFDVLIRKTGLPSAQLMTLAMQLEMKKIIRRLPGRRLALMDDIRR	-1.85
HMSSSYTEMQLERFKELLNKETLLSSEKNELKNLISDFDKISEIVSPLVVGAYLQLKNEHIETINSLG	-0.192
HMPGSGELSRRLELAIRDRTAVRVTAAAAGQERSFTLLPVAITSGRLRATDEQAGVQRTLPLSAIVAVEA	-0.0911
HMPTPRVPMSKQRQILQLLQDGHLSTREIAAALHISKTSVGDIAKAARLAGLDWEAASKLSDEELSARIYK	-0.00175

Source: the domain aggregation screens of Martell et al. (2025)
